In assay [1] the test system is MDA-MB-231 cells. Put plainly: Endocytosis capacity of humanized antibodies. The format is cell-based, human. As to conditions: antibody 1.5 μg/mL; for 1 h endocytosis (%): MDA-MB-231, 1 h at 37° C.; for 2 h endocytosis (%): MDA-MB-231, 2 h at 37° C. Here is the method: The endocytosis capacity of the anti-CDCP1 humanized antibody was detected with reference to example 5. MDA-MB-231 cells were subjected to digestion with 5 mM EDTA, and plated at 3×10^4 cells/well after cell counting. After adding an Fc blocker and blocking at room temperature for 10 mins, a test antibody (1.5 μg/mL) was added, and the mixture was incubated at 4° C. for 30 mins, centrifuged, and washed twice with PBS+2% FBS, then the cells were divided into three equal portions (labeled as 0 h, 1 h, 2 h), cells labeled as 1 h and 2 h time points were added to 200 μL of cell culture medium, and cultured at 37° C. for 1 h and 2 h, respectively. Cells at 0 h point were centrifuged, a secondary antibody (PE anti-human IgG Fc Antibody, Biolegend, 410708) was added, and the mixture was incubated at 4° C. for 30 mins, centrifuged, and washed twice with PBS+2% FBS, and detection was performed using a flow cytometer. After incubation of cells labeled as 1 h and 2 h points at 37° C. was completed, a secondary antibody was added (in the same steps as those at 0 h point), Geo-MFI of the signal under the same voltage was collected as detection signal at 0 h, and antibody internalization rate was calculated according to the following equation: Internalization (%)=(Geo-MFI (0 h)-Geo-MFI (1, 2 h))/Geo-MFI (0 h)×100%.

Assay [2] has as its target T1, HuCDCP1-C (Homo sapiens, UniProt Q9H5V8).
T1 construct: made in house; host or cells: HEK-293T
T1 sequence (Q9H5V8 30-667): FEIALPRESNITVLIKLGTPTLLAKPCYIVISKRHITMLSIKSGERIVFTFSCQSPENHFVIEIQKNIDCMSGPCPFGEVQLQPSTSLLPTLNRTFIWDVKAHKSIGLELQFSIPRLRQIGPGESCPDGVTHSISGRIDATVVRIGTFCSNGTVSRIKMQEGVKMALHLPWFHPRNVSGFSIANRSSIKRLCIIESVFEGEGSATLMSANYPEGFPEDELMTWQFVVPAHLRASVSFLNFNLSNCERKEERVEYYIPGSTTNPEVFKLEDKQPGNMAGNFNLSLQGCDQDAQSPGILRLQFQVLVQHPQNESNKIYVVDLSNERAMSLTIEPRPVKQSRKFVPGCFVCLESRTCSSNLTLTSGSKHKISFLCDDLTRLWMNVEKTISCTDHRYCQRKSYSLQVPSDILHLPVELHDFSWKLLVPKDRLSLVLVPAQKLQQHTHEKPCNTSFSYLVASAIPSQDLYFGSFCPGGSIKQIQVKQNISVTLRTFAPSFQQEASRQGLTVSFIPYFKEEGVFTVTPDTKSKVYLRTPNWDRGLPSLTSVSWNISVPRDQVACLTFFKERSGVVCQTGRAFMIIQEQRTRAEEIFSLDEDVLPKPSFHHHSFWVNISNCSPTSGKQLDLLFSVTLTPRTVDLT
The assay is described as follows: Caterra affinity of humanized anti-CDCP1 antibodies. Type of assay: binding. As to conditions: HuCDCP1-C 2 μg/ml immobilized. Here is the method:
The humanized anti-CDCP1 antibodies obtained from Example 11 were subjected to gene cloning, constructed into pTT5 expression vector for a small amount of expression in CHO cells (Expi-CHOS: Gibco A29127), and purified with an Fc affinity column (AT Protein A Diamond Plus. No. AA402312). Antibody purity was analyzed by HPLC and determined by Nanodrop. High-throughput affinity assay was carried out for a small amount of antibodies by Caterra.

B1: 1CP-124: humanized anti-CDCP1 antibody produced by 3C11; VH SEQ ID NO: 339, VL SEQ ID NO: 351 (antibody, V domains shown)
VH: QVQLVQSGAEVKKPGASVKVSCKASGYNFISYWLHWVRQAPGQGLEWMGGIYPGNTDTTYNQKFKGRVTMTRDTSTSTVYMELSSLRSEDTAVYYCIRYDYDRGMDYWGQGTLVTVSS
VL: DIQMTQSPSSLSASVGDRVTITCRASEDIYYRLAWYQQKPGKAPKLLISGATALETGVPSRFSGSGSGKDYTFTISSLQPEDIATYYCQHYWNIPWTFGQGTKVEIK
modifications: humanized antibody 3C11 heavy chain variable region 01; humanized antibody 3C11 light chain variable region 01
For the molecule B1, in assay [1], the “1 h endocytosis (%)” value worked out at 38.17% and the “2 h endocytosis (%)” value turned out to be 56.39%. In addition, in assay [2], the “ka” value amounted to 148000 M⁻¹ s⁻¹ and the “kd” value worked out at 1.47e-05 s⁻¹.

B2: 1CP-125: humanized anti-CDCP1 antibody produced by 3C11; VH SEQ ID NO: 340, VL SEQ ID NO: 351 (antibody, V domains shown)
VH: QVQLVQSGAEVKKPGASVKVSCKASGYNFISYWLHWVRQAPGQGLEWMGGIYPGNTDTTYNQKFKGRVTMTADTSTSTVYMELSSLRSEDTAVYYCIRYDYDRGMDYWGQGTLVTVSS
VL: DIQMTQSPSSLSASVGDRVTITCRASEDIYYRLAWYQQKPGKAPKLLISGATALETGVPSRFSGSGSGKDYTFTISSLQPEDIATYYCQHYWNIPWTFGQGTKVEIK
modifications: humanized antibody 3C11 heavy chain variable region 02; humanized antibody 3C11 light chain variable region 01
Take B2: in assay [1], the “1 h endocytosis (%)” value is recorded as 79.56% and the “2 h endocytosis (%)” value is 88.62%. In assay [2], the “ka” value amounted to 151000 M⁻¹ s⁻¹ and the “kd” value is 2.17e-05 s⁻¹.

B3: 1CP-117: humanized anti-CDCP1 antibody produced by 8E5; VH SEQ ID NO: 348, VL SEQ ID NO: 358 (antibody, V domains shown)
VH: QVQLVQSGSELKKPGASVKVSCKASGYTLTDFSMHWVRQAPGQGLEWMGWINTETGAPTYADDFKGRFVLSLDTSVSTAYLQISSLKAEDTAVYYCSRGRDYDPHFDYWGQGTLVTVSS
VL: EIVLTQSPATLSLSPGERATLSCRASQSISDFLHWYQQKPGQSPRLLIKYASQSISGIPARFSGSGSGSDFTLTISSVEPEDFAVYYCQSAHSFPYTFGQGTKLEIK
modifications: humanized antibody 8E5 heavy chain variable region 01; humanized antibody 8E5 light chain variable region 02
Regarding B3, in assay [1], the “1 h endocytosis (%)” value is reported as 45.68% and the “2 h endocytosis (%)” value is recorded as 68.37%. Also, in assay [2], the “ka” value came out at 152000 M⁻¹ s⁻¹ and the “kd” value was determined as 3.93e-05 s⁻¹.

B4: 1CP-121: humanized anti-CDCP1 antibody produced by 8E5; VH SEQ ID NO: 348, VL SEQ ID NO: 359 (antibody, V domains shown)
VH: QVQLVQSGSELKKPGASVKVSCKASGYTLTDFSMHWVRQAPGQGLEWMGWINTETGAPTYADDFKGRFVLSLDTSVSTAYLQISSLKAEDTAVYYCSRGRDYDPHFDYWGQGTLVTVSS
VL: EIVLTQSPATLSLSPGERATLSCRASQSISDFLHWYQQKSGQSPRLLIKYASQSISGIPARFSGSGSGSDFTLTISSVEPEDFAVYYCQSAHSFPYTFGQGTKLEIK
modifications: humanized antibody 8E5 heavy chain variable region 01; humanized antibody 8E5 light chain variable region 03
For B4, in assay [1], the “1 h endocytosis (%)” value was determined as 51.49% and the “2 h endocytosis (%)” value turned out to be 72.98%. Further, in assay [2], the “ka” value amounted to 148000 M⁻¹ s⁻¹ and the “kd” value came out at 1e-05 s⁻¹.
